According to doi:10.1101/2021.03.29.437564 (bioRxiv, 2021):

Target: the molecule itself
Experiment: direct infusion mass spectrometry

B1: ParD antitoxin (PA0125) from Pseudomonas aeruginosa, wild type (natural protein)
chain: MSTVVSFRADDALVAALDELARATHRDRPYHLRQALAQYLERQQWQVAAIDEGLADANAGRLLEHIEIEKRWGLQ
stoichiometry N: 2
